Where two headings read alike, the source gives them in different places.
B1: PtALD: aldolase derived from Pseudomonas taetrolens ATCC4683, amino acid sequence SEQ ID No: 2 or 3; recombinant, purified in Example 4 (protein, listed as Pseudomonas taetrolens)
chain: MEVAMSLPGSRIYPSPPQAPRSLLDAFQNVVTPHISDNLGRHIGARGLTRYNHTGKLVGTALTVKTRPGDNLYIYKALTLIEPGHVLVIDAQGDATNAVIGELIKLYAQQRGCVGFVVDGAIRDVASFEDTPCYARSVVHCGPYKSGPGEINVPVSIGGMIINPGDIIVGDEDGLVAFSPDHAEQVLVKAREHDAHEQQVKAEIATGAIDQSWLDKVLEKAGLAN
B2: PcALD: aldolase derived from Pseudomonas coronafaciens strain AJ2791, amino acid sequence SEQ ID No: 16; recombinant, purified in Example 5 (protein, listed as Pseudomonas coronafaciens)
chain: MKCHSVIWFSAWPHPIISREKSHMTIGFRVLSAARKVSPEWVARYRDVPVANVSDSMNRMTAGGSRLRPMHRAGVLAGPALTVKARPGDNLMLHYAIDIAQPGDVIVVDAGGDLTNALIGEMMVAYAVKRGVAGIVINGAIRDAASIGAGDFPMFAAGVSHRGPYKDGPGEINVPIAIDGMVIEAGDLVIGDDDGLLCVPYDQVAEVYDRAAAKHHAEQKQLEQIAKGENDRSWVLESLKKKGCQLPE

Columns and labels:
[1] = pH stability of PtALD (residual activity); type: physicochemical; settings: 37° C., 30 minutes, 100 mM buffers
Method: pH stability was measured over a range of pH 3 to pH 11. The buffers used for measurement were as follows: sodium acetate buffer (pH 3, 4, 5, 6), potassium phosphate buffer (pH 6, 6.5, 7, 7.5), Tris-HCl buffer (pH 7, 7.5, 8, 8.5), glycine-NaOH buffer (pH 9, 9.5, 10), CAPS-NaOH buffer (pH 10, 10.5, 11). The residual activity after incubating PtALD at 37° C. for 30 minutes in each of the buffer solutions at a concentration of 100 mM was measured under the basic reaction conditions.

[2] = Enzymatic properties of PtALD: kinetics constants when using PHOG as substrate; type: biochemical
Method: Basic reaction conditions: 50 mM Hepes-KOH (pH 8.0), 2 mM PHOG, 5 mM MgCl2, 3 mM KPB (pH 8), 16 U/ml of lactate dehydrogenase, measure a optical absorbance at 340 nm measured at 30° C.
The aldolase activity increased by 2.7 times as compared with a non-addition lot following addition of 1 mM MgCl2, and increased 2 times as compared with a non-addition lot following addition of 5 mM KPB.

[3] = Temperature stability of PtALD (residual activity); type: physicochemical; settings: 30 minutes incubation, pH 7.0 and pH 9.0
Method: Residual activity was measured under the basic measurement conditions after incubating PtALD at 25 to 70° C. for 30 minutes in 100 mM potassium phosphate buffer (pH 7.0) and 100 mM glycine-NaOH buffer (pH 9.0).

[4] = Optimum pH of PtALD aldolase activity; type: biochemical; settings: at 33° C.
Method: More specifically, aldolase activity may be estimated according to the following steps of adding aldolase to a reaction solution composed of 100 mM buffer, 50 mM indole-3-pyruvic acid, 250 mM pyruvic acid, 1 mM MgCl2 and 1% (v/v) toluene; and shaking while reaction at 33° C. for 4 hours; and then quantifying the amount of IHOG formed by HPLC.

[5] = Aldol condensation activity of pyruvic acid for various substrates using PtALD (ESI-MS); type: biochemical; settings: 50 mM substrate, 250 mM sodium pyruvate, 0.1 mg/ml PtALD, pH 9, 33° C., 2 hours; substrates of Tables 11 and 12
Method: The aldol condensation activity of pyruvic acid was measured for the various substrates shown in Table 11 using the PtALD produced in Example 4. A reaction solution was prepared composed of 100 mM glycine-NaOH (pH 9), 50 mM substrate, 250 mM sodium pyruvate, 1 mM MgCl2 and 0.1 mg/ml PtALD, and incubated at 33° C. for 2 hours. The resulting reaction solution was subjected to ultrafiltration with an ultrafiltration membrane, Microcon 10 (Amicon) for a fraction molecular weight of 10000. 2 μl of the filtrate was diluted in 200 μl of 50% acetonitrile/0.1% aqueous ammonia solution followed by ESI-MS analysis.

[6] = Synthesis of IHOG from indole-3-pyruvic acid and pyruvic acid using purified PtALD and PcALD; type: biochemical; settings: PtALD 1.8 U/ml, PcALD 0.8 U/ml, pH 8.5, 33° C., 4 hours
Method: 4-(Indol-3-ylmethyl)-4-hydroxy-2-oxoglutarate (IHOG) was synthesized from indole-3-pyruvic acid and pyruvic acid using the PtALD and PcALD produced in Examples 4 and 5 as enzyme sources. The amount of IHOG was determined by HPLC analysis using the “Inertsil ODS-2” (GL Sciences Inc., 5 μm, 4.6×250 mm). The analysis conditions are as indicated below.
Mobile phase: 40% (v/v) acetonitrile/5 mM tetrabutyl
ammonium dihydrogen phosphate solution
Column temperature: 40° C.
PtALD and PcALD were added at 1.8 U/ml and 0.8 U/ml, respectively, to a reaction solution comprised of 100 mM Hepes-KOH (pH 8.5), 50 mM indole-3-pyruvic acid, 250 mM pyruvic acid and 1 mM to 5 mM MgCl2, and allowed to react at 33° C. for 4 hours. The enzyme reaction solution was suitably diluted and the amount of IHOG formed was quantified. As a result, IHOG was able to be formed from the aldolases.

[7] = Aldol condensation activity of PtALD using acetaldehyde and α-ketobutyrate (ESI-MS); type: biochemical; settings: 50 mM acetoaldehyde, 250 mM α-ketobutyrate, 0.1 mg/ml PtALD, pH 9, 33° C., 16 hours
Method: The aldol condensation activity of the PtALD prepared in Example 4 was measured using acetaldehyde and α-ketobutyrate. A reaction solution composed of 100 mM glycine-NaOH (pH 9), 50 mM acetoaldehyde, 250 mM α-ketobutyrate, 1 mM MgCl2 and 0.1 mg/ml PtALD was prepared, and it was incubated at 33° C. for 16 hours. The resulting reaction solution was subjected to ultrafiltration with an ultrafiltration membrane, Microcon 10 (Amicon) for a fraction molecular weight of 10000. 10 μl of the filtrate was diluted in 200 μl of 50% acetonitrile/0.1% aqueous ammonia solution followed by ESI-MS analysis.

Molecule	pH stability (pH) [1]	Increase of aldolase activity as compared with a non-addition lot ([2]; addition of 1 mM MgCl2)	Increase of aldolase activity as compared with a non-addition lot ([2]; addition of 5 mM KPB)	Ka (for KPi) ([2]; pH 8.0, 30° C.)	Vmax (for PHOG) ([2]; pH 8.0, 30° C.)	Km ([2]; pH 8.0, 30° C., read-out: Km (for MgCl2))	Km ([2]; pH 8.0, 30° C., read-out: Km (for PHOG))	temperature stability [3]	optimum pH [4]	Formation of pyruvic acid aldol condensates for various substrates [5]	IHOG formed ([6]; MgCl2 1 mM)	IHOG formed ([6]; MgCl2 5 mM)	Formation of aldol condensate from acetaldehyde and α-ketobutyrate [7]
B1	≥ 6	2.7 times	2 times	0.95 mM	91.7 µmol/min/mg	19 µM	100 µM	≤ 70 °C	about 9	the desired pyruvic acid aldol condensates were formed	11.4 mM	10.5 mM	formation of the desired aldol condensate
B2											4.9 mM	5.4 mM	
